Results on 1 molecule are retold here after publication PMC4139611, “Differential expression of Homeobox C11 protein in water buffalo Bubalus bubalis and its putative 3D structure”.

The data set deals with HOXC11 (His-HOXC11) (Bubalus bubalis (water buffalo), UniProt W5XU26 1-304). The experiment in a line: EMSA; supershift with anti-HOXC11 antibody; 10 mM Tris pH 7.9, 1 mM DTT, 0.1 mM EDTA, 50 mM KCl, 5% glycerol, 30 min at 4 °C; 5% native PAGE in 1x TBE at room temperature. The note with it: protein: recombinant; tags: N-terminal His6 with thrombin site; label: 32P (alpha-32P-dCTP); 5' overhang 4 nt (GATC) at both ends.
Sequence of HOXC11 (His-HOXC11) (W5XU26 entry or part of it): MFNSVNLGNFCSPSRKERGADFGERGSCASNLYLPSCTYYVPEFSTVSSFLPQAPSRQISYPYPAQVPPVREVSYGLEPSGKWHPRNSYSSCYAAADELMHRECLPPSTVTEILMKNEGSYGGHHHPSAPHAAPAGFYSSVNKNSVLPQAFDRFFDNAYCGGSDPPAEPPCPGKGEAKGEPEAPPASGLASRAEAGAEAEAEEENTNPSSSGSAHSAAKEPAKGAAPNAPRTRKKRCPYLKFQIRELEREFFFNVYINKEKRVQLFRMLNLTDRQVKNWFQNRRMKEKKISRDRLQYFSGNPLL

B1: CE-LPH1 probe (LPH promoter) (dsDNA)
DNA 1: GATCTTTTACAACCTCAGTTG
DNA 2: GATCCAACTGAGGTTGTAAAA
Consider B1, for which the binding result is listed as “binds”.
